Experimental data: patent US20060263334A1

Columns and labels:
[1] = target: MA scTCR (single chain Vα23.1Jα14.3-linker-Vβ8.3DβJβ1.2-Cβ2 fused through a thrombin-site linker to the murine CD3 ξ chain), displayed on transfected RBL or BWZ cells (human; mouse); experiment: flow cytometry, 293H cells transfected with scTCR; bar marked **. Reference bars: 293H 1.1, Control vector 1.4
[2] = target: scTCR-AGD-CD4TM-hζ (human) (UniProt P01730); experiment: flow cytometry, 293H cells transfected with scTCR-AGD-CD4TM-hζ; bar marked **. Reference bars: 293H 1.1, Control vector 1.4
scTCR-CD4TM-hζ (human) = scTCR-CD4TM-hζ (human) (UniProt P01730); experiment: flow cytometry, 293H cells transfected with scTCR-CD4TM-hζ. Reference bars: 293H 1.1, Control vector 1.4

Fold increase in MFI [1]: 4.4 fold | Fold increase in MFI [2]: 6.5 fold | Fold increase in MFI (scTCR-CD4TM-hζ (human)): 2.1 fold
Substance: anti-TCR βF1 antibody
